T1: human integrin avb8 (human)
T1 chain 1: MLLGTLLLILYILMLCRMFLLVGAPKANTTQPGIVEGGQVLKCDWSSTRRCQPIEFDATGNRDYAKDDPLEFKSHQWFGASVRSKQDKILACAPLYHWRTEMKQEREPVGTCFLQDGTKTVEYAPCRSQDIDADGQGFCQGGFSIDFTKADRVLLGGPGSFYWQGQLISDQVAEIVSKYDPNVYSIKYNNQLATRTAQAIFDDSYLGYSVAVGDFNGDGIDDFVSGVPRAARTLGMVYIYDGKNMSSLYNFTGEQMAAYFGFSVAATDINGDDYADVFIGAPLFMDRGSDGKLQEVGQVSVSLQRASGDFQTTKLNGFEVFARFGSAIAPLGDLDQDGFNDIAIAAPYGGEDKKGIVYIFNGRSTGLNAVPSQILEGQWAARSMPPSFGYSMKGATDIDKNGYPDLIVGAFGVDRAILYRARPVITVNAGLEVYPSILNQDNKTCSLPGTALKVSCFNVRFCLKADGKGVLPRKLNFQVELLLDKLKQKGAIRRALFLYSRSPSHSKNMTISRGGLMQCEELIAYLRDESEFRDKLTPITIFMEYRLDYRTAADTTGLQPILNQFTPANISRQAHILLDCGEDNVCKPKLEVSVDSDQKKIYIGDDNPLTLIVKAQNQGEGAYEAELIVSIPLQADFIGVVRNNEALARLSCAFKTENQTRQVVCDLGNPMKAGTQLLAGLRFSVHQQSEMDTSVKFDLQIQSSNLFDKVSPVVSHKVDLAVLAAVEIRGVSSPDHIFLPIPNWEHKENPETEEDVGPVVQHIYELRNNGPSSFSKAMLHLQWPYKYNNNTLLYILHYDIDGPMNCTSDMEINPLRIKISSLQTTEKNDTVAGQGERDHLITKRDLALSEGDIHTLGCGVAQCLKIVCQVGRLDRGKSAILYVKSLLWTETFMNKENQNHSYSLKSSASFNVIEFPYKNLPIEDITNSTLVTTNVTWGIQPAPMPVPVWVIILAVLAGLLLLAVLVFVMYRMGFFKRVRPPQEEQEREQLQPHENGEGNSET
T1 chain 2: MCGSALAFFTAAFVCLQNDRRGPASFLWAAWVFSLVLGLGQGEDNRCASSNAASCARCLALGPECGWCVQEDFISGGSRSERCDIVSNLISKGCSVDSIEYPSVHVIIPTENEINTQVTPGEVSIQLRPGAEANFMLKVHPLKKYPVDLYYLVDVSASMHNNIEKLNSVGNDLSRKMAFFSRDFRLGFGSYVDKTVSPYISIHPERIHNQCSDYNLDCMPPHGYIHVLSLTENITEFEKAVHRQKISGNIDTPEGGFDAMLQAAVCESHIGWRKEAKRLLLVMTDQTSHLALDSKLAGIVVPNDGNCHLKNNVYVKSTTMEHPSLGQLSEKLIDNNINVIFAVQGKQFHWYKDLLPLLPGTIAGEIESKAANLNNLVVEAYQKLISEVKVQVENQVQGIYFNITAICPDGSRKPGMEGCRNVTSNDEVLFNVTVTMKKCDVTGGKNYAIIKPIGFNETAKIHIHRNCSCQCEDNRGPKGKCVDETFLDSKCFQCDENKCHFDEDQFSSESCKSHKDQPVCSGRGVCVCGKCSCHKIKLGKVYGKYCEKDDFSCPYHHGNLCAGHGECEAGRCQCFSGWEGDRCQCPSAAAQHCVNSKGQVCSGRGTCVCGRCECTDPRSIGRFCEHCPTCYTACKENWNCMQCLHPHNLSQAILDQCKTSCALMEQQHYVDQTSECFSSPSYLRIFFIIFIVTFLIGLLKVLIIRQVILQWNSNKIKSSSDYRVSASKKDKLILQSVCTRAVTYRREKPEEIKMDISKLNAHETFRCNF


Molecular target: T1, human integrin avb8
Test: SPR

Row | Binder | Kd [nM]
1 | ADWA11 VH05/VK01 (VH05-2_VK01) Fab (antibody, V domains shown) VH: EVQLVESGGGLVQPGGSLRLSCAASGFNIKDYYMNWVRQAPGKGLEWVGWIDPDNGNTIYDPKFQGRFTISADTSKNSAYLQMNSLRAEDTAVYYCARRLLMDYWGQGTLVTVSS VL: DIQMTQSPSSLSASVGDRVTITCRSTKSLLHFNGNTYLFWYQQKPGKAPKRLIYYMSNLASGVPSRFSGSGSGTDFTLTISSLQPEDFATYYCMQSLEYPFTFGQGTKVEIK | < 0.1
2 | Mouse hybridoma ADWA-11 Fab (antibody, V domains shown) VH: EVQLQQSGAELVRPGAFVKLSCKASGFNIKDYYMNWVLQRPEQGLEWIGWIDPDNGNTIYDPKFQGKASITADTSSNTAYLQLSSLTSEDTAVYYCARRLLMDYWGQGTSVTVSS VL: DIVMTQAAPSVPVTPGESVSISCRSTKSLLHFNGNTYLFWFLQRPGQSPQRLIYYMSNLASGVPDRFSGRGSGTDFTLRISRVEAEDVGVYYCMQSLEYPFTFGTGTKLEIK | 0.536
